Measurements taken from patent US20180155451A1 (published 2018).
Residue numbers refer to the chain shown, from its start. Names and notes keep the numbering of the source.

T1: FcgRIIa R extracellular domain with C-terminal His tag (human, UniProt P12318 34-217)
T1 construct: extracellular domain; also called FcγRIIa R; FcγRIIa type R; not shown: His tag attached to the C terminus
T1 sequence (looked up): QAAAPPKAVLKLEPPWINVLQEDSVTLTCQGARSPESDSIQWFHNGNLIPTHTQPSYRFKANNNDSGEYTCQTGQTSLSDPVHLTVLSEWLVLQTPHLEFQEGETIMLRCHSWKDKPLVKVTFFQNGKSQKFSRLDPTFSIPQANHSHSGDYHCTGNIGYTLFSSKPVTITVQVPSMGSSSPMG

T2: FcgRIIa H extracellular domain with C-terminal His tag (human, UniProt P12318 34-217)
T2 construct: extracellular domain; also called FcγRIIa H; FcγRIIa type H; not shown: His tag attached to the C terminus
T2 sequence (looked up): T1 sequence (looked up) with R134H

T3: FcgRIIb extracellular domain with C-terminal His tag (human, UniProt P31994 43-217)
T3 construct: extracellular domain; also called FcγRIIb; not shown: His tag attached to the C terminus
T3 sequence (looked up): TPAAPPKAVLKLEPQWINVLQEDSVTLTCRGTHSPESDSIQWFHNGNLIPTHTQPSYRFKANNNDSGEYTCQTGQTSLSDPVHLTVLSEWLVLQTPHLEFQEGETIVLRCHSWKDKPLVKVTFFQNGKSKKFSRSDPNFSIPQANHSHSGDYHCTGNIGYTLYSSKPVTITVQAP

T4: FcgRIIa R (human, UniProt P12318 34-217)
T4 construct: extracellular domain; also called FcγRIIa R; FcγRIIa type R; not shown: His tag attached to the C terminus
T4 sequence (looked up): T1 sequence (looked up)

T5: FcgRIIa H (human, UniProt P12318 34-217)
T5 construct: extracellular domain; also called FcγRIIa H; FcγRIIa type H; not shown: His tag attached to the C terminus
T5 sequence (looked up): T1 sequence (looked up) with R134H

T6: FcgRIIb (human, UniProt P31994 43-217)
T6 construct: extracellular domain; Expressed in FreeStyle293 cells and purified; used as analyte in Biacore; also called FcγRIIb; CD32B; not shown: His tag attached to the C terminus
T6 sequence (looked up): T3 sequence (looked up)

B1: H240-Kn061/H240-Hl071/L73-k0 variant with F241L introduced into H240-Hl071 (antibody, human IgG1, kappa)
heavy 1: QDQLVQSGAEVKKPGASVKVSCKASGFNIKDTYIQWVRQAPGQGLEWMGRIDPLRKQTKYREKFEGRVTITADTSTNTAYMELSSLRSEDTAVYYCVRSGREFDYWGQGTLVTVSSASTKGPSVFPLAPSSKSTSGGTAALGCLVKDYFPEPVTVSWNSGALTSGVHTFPAVLQSSGLYSLSSVVTVPSSSLGTQTYICNVNHKPSNTKVDKKVEPKSCDKTHTCPPCPAPEYYWGPSVFLFPPKPKDTLMISRTPEVTCVVVDVSDEDPEVKFNWYVDGVEVHNAKTKPREEQYNATYRVVSVLTVLHQDWLNGKEYKCKVSNKALPAPIEKTISKAKGQPREPQVCTLPPSRDELTKNQVSLWCLVKGFYPSDIAVEWESNGQPENNYKTTPPVLDSDGSFFLYSKLTVDKSRWQQGNVFSCSVMHEALHNHYTQKSLSLSP
heavy 2: QDQLVQSGAEVKKPGASVKVSCKASGFNIKDTYIQWVRQAPGQGLEWMGRIDPLRKQTKYREKFEGRVTITADTSTNTAYMELSSLRSEDTAVYYCVRSGREFDYWGQGTLVTVSSASTKGPSVFPLAPSSKSTSGGTAALGCLVKDYFPEPVTVSWNSGALTSGVHTFPAVLQSSGLYSLSSVVTVPSSSLGTQTYICNVNHKPSNTKVDKKVEPKSCDKTHTCPPCPAPELLGGPSVLLFPPKPKDTLMISRTPEVTCVVVDVSHEDPEVKFNWYVDGVEVHNAKTKPREEQYNSTYRVVSVLTVLHQDWLNGKEYKCKVSNDALPMPIEETISKAKGQPREPQVYTLPPSRCELTKNQVSLSCAVKGFYPSDIAVEWESNGQPENNYKTTPPVLDSDGSFFLVSKLTVDKSRWQQGNVFSCSVMHEALHNHYTQKSLSLSP
light: DIQMTQSPSSLSASVGDRVTITCRASQDIHKYIAWYQQKPGQAPRLLIQYTSTLQPGVPSRFSGSGSGTDYTFTISSLQPEDIATYYCLQYEQLRTFGGGTKVEIKRTVAAPSVFIFPPSDEQLKSGTASVVCLLNNFYPREAKVQWKVDNALQSGNSQESVTEQDSKDSTYSLSSTLTLSKADYEKHKVYACEVTHQGLSSPVTKSFNRGEC
notes: Point variant made with H240-Kn061/H240-Hl071/L73-k0 as template; position by EU numbering; also called H240-Hl071 F241L
B2: H240-Kn061/H240-Hl071/L73-k0 variant with V240F introduced into H240-Hl071 (antibody, human IgG1, kappa)
heavy 1: B1 heavy 1
heavy 2: B1 heavy 2 with V239F, L240F
light: B1 light
notes: Point variant made with H240-Kn061/H240-Hl071/L73-k0 as template; position by EU numbering; also called H240-Hl071 V240F
B3: H240-Kn061/H240-Hl071/L73-k0 variant with Y235N introduced into H240-Kn061 (antibody, human IgG1, kappa)
heavy 1: B1 heavy 1 with Y234N
heavy 2: B1 heavy 2 with L240F
light: B1 light
notes: Point variant made with H240-Kn061/H240-Hl071/L73-k0 as template; position by EU numbering; also called H240-Kn061 Y235N
B4: H240-Kn061/H240-Hl071/L73-k0 variant with V240A introduced into H240-Hl071 (antibody, human IgG1, kappa)
heavy 1: B1 heavy 1
heavy 2: B1 heavy 2 with V239A, L240F
light: B1 light
notes: Point variant made with H240-Kn061/H240-Hl071/L73-k0 as template; position by EU numbering; also called H240-Hl071 V240A
B5: H240-Kn061/H240-Hl071/L73-k0 variant with Y234E introduced into H240-Kn061 (antibody, human IgG1, kappa)
heavy 1: B1 heavy 1 with Y233E
heavy 2: B1 heavy 2 with L240F
light: B1 light
notes: Point variant made with H240-Kn061/H240-Hl071/L73-k0 as template; position by EU numbering; also called H240-Kn061 Y234E
B6: H240-Kn061/H240-Hl071/L73-k0 variant with F241M introduced into H240-Hl071 (antibody, human IgG1, kappa)
heavy 1: B1 heavy 1
heavy 2: B1 heavy 2 with L240M
light: B1 light
notes: Point variant made with H240-Kn061/H240-Hl071/L73-k0 as template; position by EU numbering; also called H240-Hl071 F241M
B7: H240-Kn120/H240-Hl068/L73-k0 (antibody, human IgG1, kappa)
heavy 1: B1 heavy 1 with S238M, A326D
heavy 2: B1 heavy 2 with L240F, D269E, M329K
light: B1 light
notes: Heterodimerized anti-EREG IgG1: Kn120 is H240-Kn067 with S239M
B8: H240-Kn061/H240-Hl071/L73-k0 variant with L235F introduced into H240-Hl071 (antibody, human IgG1, kappa)
heavy 1: B1 heavy 1
heavy 2: B1 heavy 2 with L234F, L240F
light: B1 light
notes: Point variant made with H240-Kn061/H240-Hl071/L73-k0 as template; position by EU numbering; also called H240-Hl071 L235F

Key:
[1] = target: T1, FcgRIIa R extracellular domain with …; experiment: SPR (Biacore) KD ratio against the template H240-Kn061/H240-Hl071/L73-k0
Protocol: (§1) The antibodies were assessed for the binding to each FcgR. […] The resultant value was defined as relative KD, and used as an assessment indicator.
(§2) Analysis of interaction between obj ective antibody and the FcγR was carried out using Biacore T100 (GE Healthcare), Biacore T200, Biacore A100, and Biacore 4000. HBS-EP+ (GE Healthcare) was used as the running buffer, and the measurement temperature was set to 25° C. Chips produced by immobilizing the antigen peptide by the amine coupling method to a Series S sensor Chip CM5 (GE Healthcare), chips produced by allowing preliminarily biotinylated antigen peptides to interact with and immobilize onto a Series S Sensor Chip SA (certified) (GE Healthcare), chips produced by immobilizing Protein L (ACTIGEN, BioVision) to Series S Sencor Chip CM5 (GE Healthcare), or chips produced by immobilizing Protein A/G (Thermo Scientific) to Series S Sencor Chip CM5 (GE Healthcare) were used. Antibodies of interest were captured onto these chips, and allowed to interact to each FcγR diluted with running buffer.

[2] = target: T2, FcgRIIa H extracellular domain with …; experiment: as above
Protocol: as §1, §2

[3] = target: T3, FcgRIIb extracellular domain with …; experiment: as above
Protocol: as §1, §2

[4] = target: T7, FcgRIIIa F extracellular domain with C-terminal His tag (human, UniProt P08637 17-208); experiment: as above
T7 construct: extracellular domain; also called FcγRIIIa F; FcγRIIIa (F158); not shown: His tag attached to the C terminus
T7 sequence (P08637 17-208): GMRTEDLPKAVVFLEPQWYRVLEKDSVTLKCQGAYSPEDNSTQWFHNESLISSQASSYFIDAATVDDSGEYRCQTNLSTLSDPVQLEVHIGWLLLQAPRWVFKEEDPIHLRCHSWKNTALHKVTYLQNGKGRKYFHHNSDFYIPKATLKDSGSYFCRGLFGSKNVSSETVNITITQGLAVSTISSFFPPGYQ
Protocol: as §1, §2

[5] = target: T8, FcgRIIIa V extracellular domain with C-terminal His tag (human, UniProt P08637 17-208); experiment: as above
T8 construct: extracellular domain; also called FcγRIIIa V; FcγRIIIa (V158); not shown: His tag attached to the C terminus
T8 sequence (P08637 17-208 F176V): as the sequence (P08637 17-208) above, with F160V counted along it
Protocol: as §1, §2

[6] = target: T9, FcgRIa (human, UniProt P12314 16-292); experiment: SPR (Biacore), antibody captured on chip, FcgR extracellular domain as analyte
T9 construct: extracellular domain; Expressed in FreeStyle293 cells and purified; used as analyte in Biacore; also called FcγRIa; FcγRI; not shown: His tag attached to the C terminus
T9 sequence (P12314 16-292): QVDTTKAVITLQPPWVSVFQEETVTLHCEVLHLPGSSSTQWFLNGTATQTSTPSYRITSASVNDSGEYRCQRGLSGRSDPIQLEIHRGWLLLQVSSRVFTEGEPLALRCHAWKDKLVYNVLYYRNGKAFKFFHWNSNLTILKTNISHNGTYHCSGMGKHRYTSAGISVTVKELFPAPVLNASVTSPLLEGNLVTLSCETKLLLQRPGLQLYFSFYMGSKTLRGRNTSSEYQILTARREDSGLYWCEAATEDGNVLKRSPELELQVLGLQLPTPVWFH
Protocol: (§3) Specifically, H240-Kn120 (SEQ ID NO: 99) resulting from introduction of S239M into H240-Kn067 and H240-Kn126 (SEQ ID NO: 100) resulting from introduction of Y235Q into H240-Kn120 were prepared according to the method described in Reference Example 1. […] Those described above were assayed for the binding to each FcgR according to the method described in Reference Example 8.
as §2, with “buffer. To regenerate and repeatedly use the chip, the antibodies captured onto the chip were washed off by reacting 10 mM glycine-HCl, pH 1.5.” for “buffer.”

[7] = target: T4, FcgRIIa R; experiment: as above
Protocol: as §3
as §2, with “buffer. To regenerate and repeatedly use the chip, the antibodies captured onto the chip were washed off by reacting 10 mM glycine-HCl, pH 1.5.” for “buffer.”

[8] = target: T5, FcgRIIa H; experiment: as above
Protocol: as §3
as §2, with “buffer. To regenerate and repeatedly use the chip, the antibodies captured onto the chip were washed off by reacting 10 mM glycine-HCl, pH 1.5.” for “buffer.”

[9] = target: T6, FcgRIIb; experiment: as above
Protocol: as §3
as §2, with “buffer. To regenerate and repeatedly use the chip, the antibodies captured onto the chip were washed off by reacting 10 mM glycine-HCl, pH 1.5.” for “buffer.”

[10] = target: T10, FcgRIIIa F (human, UniProt P08637 17-208); experiment: as above
T10 construct: extracellular domain; also called FcγRIIIa F; not shown: His tag attached to the C terminus
T10 sequence (P08637 17-208): as the sequence (P08637 17-208) above
Protocol: as §3
as §2, with “buffer. To regenerate and repeatedly use the chip, the antibodies captured onto the chip were washed off by reacting 10 mM glycine-HCl, pH 1.5.” for “buffer.”

[11] = target: T11, FcgRIIIa V (human, UniProt P08637 17-208); experiment: as above
T11 construct: extracellular domain; also called FcγRIIIa V; not shown: His tag attached to the C terminus
T11 sequence (P08637 17-208 F176V limits assumed): as the sequence (P08637 17-208) above, with F160V counted along it
Protocol: as §3
as §2, with “buffer. To regenerate and repeatedly use the chip, the antibodies captured onto the chip were washed off by reacting 10 mM glycine-HCl, pH 1.5.” for “buffer.”

| Binder | relative KD (KD of H240-Kn061/H240-Hl071/L73-k0 / KD of variant) [1] | relative KD (KD of H240-Kn061/H240-Hl071/L73-k0 / KD of variant) [2] | relative KD (KD of H240-Kn061/H240-Hl071/L73-k0 / KD of variant) [3] | relative KD (KD of H240-Kn061/H240-Hl071/L73-k0 / KD of variant) [4] | relative KD (KD of H240-Kn061/H240-Hl071/L73-k0 / KD of variant) [5] | Kd [6] | Kd [7] | Kd [8] | Kd [9] | Kd [10] | Kd [11] |
| --- | --- | --- | --- | --- | --- | --- | --- | --- | --- | --- | --- |
| B1 | 1.2 | 1.2 | 0.8 | 1.3 | 1.3 | – | – | – | – | – | – |
| B2 | 1.1 | 0.9 | 0.9 | 1.4 | 1 | – | – | – | – | – | – |
| B3 | 1 | 0.7 | 0.7 | 1.3 | 2 | – | – | – | – | – | – |
| B4 | 1 | 1.2 | 1 | 1.3 | 1.7 | – | – | – | – | – | – |
| B5 | 1.4 | 0.7 | 0.5 | 1.9 | 1.6 | – | – | – | – | – | – |
| B6 | 1.3 | 1.1 | 0.9 | 1.3 | 1.3 | – | – | – | – | – | – |
| B7 | – | – | – | – | – | 0.37 nM | 17 nM | 59 nM | 150 nM | 2.4 nM | 0.66 nM |
| B8 | 1.2 | 1.1 | 1 | 1.9 | 1.6 | – | – | – | – | – | – |
